Reference: patent publication US20190030156A1 (TECHNOVAX, published 2019)

Target: RSV fusion glycoprotein (F) of RSV A2 strain virus (human respiratory syncytial virus A2 …, UniProt P03420 26-574)
Assay: cell-based or functional assay

Chain of RSV fusion glycoprotein (F) of RSV A2 strain virus (P03420 26-574): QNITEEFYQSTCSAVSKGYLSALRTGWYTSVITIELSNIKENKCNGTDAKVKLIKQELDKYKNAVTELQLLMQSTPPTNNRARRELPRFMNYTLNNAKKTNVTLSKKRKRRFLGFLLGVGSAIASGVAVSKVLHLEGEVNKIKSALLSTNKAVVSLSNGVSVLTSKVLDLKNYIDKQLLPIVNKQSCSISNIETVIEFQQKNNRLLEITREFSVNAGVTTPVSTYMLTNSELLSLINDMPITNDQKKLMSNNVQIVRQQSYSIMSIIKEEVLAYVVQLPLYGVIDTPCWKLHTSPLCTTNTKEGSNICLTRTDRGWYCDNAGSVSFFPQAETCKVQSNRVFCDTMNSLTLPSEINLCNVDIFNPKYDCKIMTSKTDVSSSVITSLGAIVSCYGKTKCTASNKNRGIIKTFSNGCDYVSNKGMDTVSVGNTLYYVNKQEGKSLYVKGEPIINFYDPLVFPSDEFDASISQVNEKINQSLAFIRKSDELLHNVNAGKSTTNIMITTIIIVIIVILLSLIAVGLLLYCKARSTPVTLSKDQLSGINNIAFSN

B1: Palivizumab (Synagis, MedImmune) (antibody, V domains shown)
VH: QVTLRESGPALVKPTQTLTLTCTFSGFSLSTSGMSVGWIRQPPGKALEWLADIWWDDKKDYNPSLKSRLTISKDTSKNQVVLKVTNMDPADTATYYCARSMITNWYFDVWGAGTTVTVSS
VL: DIQMTQSPSTLSASVGDRVTITCKCQLSVGYMHWYQQKPGKAPKLLIYDTSKLASGVPSRFSGSGSGTEFTLTISSLQPDDFATYYCFQGSGYPFTFGGGTKLEIK
- IC50 neutralizing activity (plaque reduction neutralization test, RSV A2 on HEp-2 cells): 2 µg/mL
